Measured values reported in patent US7611721B1, “Adjuvant combination formulations” (priority 2000, dated 2009).
Like-named read-outs stand apart in the source and are kept apart here.

Key:
[1] = tested on: T1SP10MN(A) (−Cys)
Protocol: Animals were bled prior to initial immunization, and at indicated time points. Serum was analyzed from individual mice, or as pools from mice within groups. Vaginal lavage was performed on euthanized mice to assess antibody levels. This was accomplished by instillation of 75:1 RPMI-10 into the vaginal vault of female mice using a 200:1 pipette. The vault was washed by repeated delivery and removal of fluid, which was then added to 10:1 of FBS. Vaginal lavage were analyzed as pools.
For analysis of HIV peptide-specific antibody and subclass distribution, peptide was suspended in either carbonate buffer (15 mM Na2CO3, 35 mM NaHCO3, pH 9.6), or PBS, at a concentration of 1 μg/ml and plated to 96 well microtiter plates (Nunc) in a volume of 100:1. After overnight incubation at 37° C., plates were washed, and blocked (0.1% gelatin/PBS) at room temperature for 2-4 hours. ELISA plates were washed with wash buffer (PBS, 0.1% Tween™20) before addition of serially diluted serum (PBS, 0.1% gelatin, 0.05% Tween™20, 0.02% sodium azide). After a four hour incubation, wells were washed and appropriate dilutions of biotinylated anti-isotype/subclass antibodies were added for incubation at 4° C. overnight. Wells were washed and incubated with strepavidin-conjugated horseradish peroxidase. After incubation, wells were washed, and developed with ABTS. Wells were read at 405 nm. Titers were standardized using control sera.
Vaginal IgG and IgA anti-peptide antibody titers were measured from lavage obtained 2 weeks after final immunization. Groups of 5 Balb/c female mice were immunized with 25 μg T1SP10MN(A) (−Cys) and the indicated adjuvant formulations on days 0, 28, and 42. Vaginal antibody titers were determined from pool d lavage fluid.
HIV peptide-specific vaginal lavage endpoint reciprocal endpoint IgG and IgA antibody titers were measured from pooled serum (n=5 Balb/c) 15 days after secondary immunization. […] Aqueous MPL™ was delivered at 50 μg per dose. Recombinant murine IL-12 was delivered at 40 ng/mouse. Recombinant murine GM-CSF was delivered at 10 μg/mouse.
Vaginal IgG and IgA anti-peptide antibody titers were measured from lavage 41 days after initial immunization, 13 days after secondary immunization.

[2] = tested on: T1SP10MN(A) (−Cys); settings: Experiment 3, 14 days after second immunization
Protocol: (§1) The protocols of Experiment 2 were followed, with Swiss-Webster mice used instead of Balb/c mice. Only reciprocal anti-peptide IgG endpoint titers and vaginal lavage endpoint reciprocal endpoint IgG and IgA antibody titers were measured in this experiment.
Reciprocal anti-T1SP10MN(A) (−Cys) IgG endpoint titers were measured from geometric means from individual Swiss-Webster mice (GMT), obtained 14 days after the second immunization. IgG1 and IgG2a subclass endpoint titers were also measured from pooled serum. For recipients of Freund's adjuvants, mice were primed with peptide emulsified in CFA, and boosted with IFA. […] Aqueous MPL™ was delivered at 50 μg per dose. Recombinant murine IL-12 was delivered at 40 ng/mouse. Recombinant murine GM-CSF was delivered at 10 μg/mouse.

[3] = tested on: T1SP10MN(A) (−Cys); remark: listed apart in the source
Protocol: Mice were immunized subcutaneously in the rump, in a total volume of 0.2 ml equally divided on each side of the tail. Immunizations were administered at varying time intervals, as indicated below. Antigen and cytokines were diluted in phosphate buffered saline to the appropriate concentrations and formulated with adjuvants less than 16 hours prior to immunization, under sterile conditions. Vaccines were mixed by gentle agitation, and stored at 4° C. Formulations were mixed by vortex immediately prior to immunization.
Reciprocal anti-HIV peptide-specific IgG endpoint titers were measured from pooled serum (n=5 Balb/c) at the indicated time points after initial immunization. Mice were immunized subcutaneously in the rump with 25 μg of T1SP10MN(A) (−Cys), unless otherwise indicated, on day 0, and on day 27. For recipients of Freund's adjuvants, mice were primed with peptide emulsified in CFA, and boosted with IFA. MPL™ SE was provided as an emulsion containing 2% squalene oil and 50 μg MPL™ per dose. SE is an oil-in-water emulsion vehicle consisting of squalene, glycerol, and an emulsifying agent. Recombinant murine IL-12 was delivered at 50 ng/mouse. Recombinant murine GM-CSF was delivered at 10 μg/mouse.
Reciprocal endpoint IgG subclass titers were measured from pooled serum (n=5 Balb/c) six weeks after initial immunization, two weeks after secondary immunization. Mice were immunized subcutaneously in the rump with 25 μg of peptide, unless otherwise indicated. For recipients of Freund's adjuvants, mice were primed with peptide emulsified in complete Freund's adjuvant, and boosted with incomplete Freund's adjuvant on weeks four and six. MPL™ SE was provided as an emulsion containing 2% squalene oil and 50 μg MPL™ per dose. SE is an oil-in-water emulsion vehicle consisting of squalene, glycerol, and an emulsifying agent. Recombinant murine IL-12 was delivered at 50 ng/mouse. Recombinant murine GM-CSF was delivered at 10 μg/mouse.
Mice were immunized subcutaneously in the rump, in a total volume of 0.2 ml equally divided on each side of the tail. Immunizations were administered on days 0 and 21 with 25 μg of the HIV peptide, together with the indicated amount of adjuvant(s).
Reciprocal anti-peptide IgG endpoint titers were measured from either geometric means from individual mice (GMT) or from pooled serum (n=5 Balb/c), obtained 14 days after the second immunization. IgG1 and IgG2a subclass endpoint titers were also measured from pooled serum.

[4] = tested on: spleen cells; assay: Secretion of interferon-gamma by spleen cells (ELISA); type: cell-based, Balb/c mice; settings: for Secretion of Interferon-gamma, Con A 1 μg/ml: Experiment 1
Protocol: For proliferation assays and in vitro cytokine analysis, spleen cells were obtained from mice at the indicated time points. Single cell suspensions were prepared from pools of 3-5 mice as indicated in Results. For proliferation and cytokine analysis, cells were suspended in round bottom 96 well culture plates precoated overnight with HIV peptide antigens, control proteins, or RPMI-10 only. Spleen cells were added at 5×10^5 cells/well using culture medium having 2× supplements. Cell culture supernatants were harvested from triplicate wells for cytokine analysis three or six days after culture initiation. Immediately after supernatant harvest, cultures were pulsed with ^3H-thymidine for 18-24 hours, and harvested to quantify cell proliferation.
For cytokine analysis, cell culture supernatants were added to wells coated with BVD6-11B11 (for anti-IL4), or R4-6A2 (for interferon-gamma). After incubation and washing, wells were developed using biotin-labeled BVD6-24G2 (for IL4) or XMG 1.2 (for interferon-gamma). The concentration of cytokines was determined using a standard curve prepared from recombinant murine interferon-gamma or interleukin-4. All cytokine reagents were purchased from Pharmingen (San Diego, Calif.).
Interferon-gamma secreted into culture by spleen cells stimulated with 25 μg T1SP10MN(A) (−Cys). Spleen cells were harvested from pools of five Balb/c female mice and cultured with the indicated antigenic stimuli (the same as in Example 6) for either three or six days. Interferon-gamma levels were determined by ELISA, and compared to a standard having a known concentration. Blank wells indicate that the assay could not detect Interferon-gamma from those culture conditions. The lower limit of detection sensitivity was 4 picograms/ml.
Cells were cultured for a total of 96 hours. Cell culture supernatants were analyzed for interferon-gamma by ELISA. All values were after subtraction from those determined from supernatants of cells stimulated with 10 μg of lysozyme. Results which were below the limit of detection, after subtraction from stimulation induced with lysozyme are indicated as “bd”. The adjuvants were the same as those in Example 12.

[5] = tested on: T1SP10MN(A) (−Cys); settings: Experiment 3; pooled, n=5 Swiss-Webster; 15 days after secondary immunization
Protocol: as §1
Aqueous MPL™ was delivered at 50 μg per dose. Recombinant murine IL-12 was delivered at 40 ng/mouse. Recombinant murine GM-CSF was delivered at 10 μg/mouse.

[6] = Experiment 1, pooled lavage, 5 Balb/c, immunized days 0, 28, 42, 2 weeks after final immunization
[7] = Experiment 2, pooled, n=5 Balb/c, 15 days after secondary immunization
[8] = Experiment 4, Balb/c, day 41, 13 days after secondary immunization
[9] = Experiment 1, pooled serum n=5 Balb/c, 25 μg peptide s.c. day 0 and 27
[10] = Experiment 1, pooled serum n=5 Balb/c, six weeks after initial, two weeks after secondary immunization, 25 μg peptide
[11] = Experiment 2, pooled serum n=5 Balb/c, 14 days after second immunization
[12] = Experiment 4, individual Balb/c mouse, day 41, 13 days after secondary immunization (days 0 and 28)
[13] = Experiment 4, pooled serum n=5 Balb/c, day 41, 13 days after secondary immunization
[14] = Experiment 5, pooled serum n=5 Balb/c, immunized days 0 and 22, bled day 42
[15] = Experiment 2, 96 hours culture, after subtraction of lysozyme value, bd = below limit of detection

B1: GM-CSF: Recombinant murine granulocyte macrophage colony stimulating factor (protein, UniProt P01587 18-141, looked up)
Granulocyte-macrophage …: APTRSPITVTRPWKHVEAIKEALNLLDDMPVTLNEEVEVVSNEFSFKKLTCVQTRLKIFEQGLRGNFTKLKGALNMTASYYQTYCPPTPETDCETQVTTYADFIDSLKTFLTDIPFECKKPGQK
Vaginal lavage IgA anti-T1SP10MN(A) (−Cys) antibody titer [1, 6]: <20 | Vaginal lavage IgG anti-T1SP10MN(A) (−Cys) antibody titer [1, 6]: <20 | Vaginal lavage reciprocal anti-T1SP10MN(A) (−Cys) IgA endpoint titer [1, 7]: <10 | Vaginal lavage reciprocal anti-T1SP10MN(A) (−Cys) IgG endpoint titer [1, 7]: 26 | Vaginal lavage IgA anti-T1SP10MN(A) (−Cys) antibody titer [1, 8]: <10 | Vaginal lavage IgG anti-T1SP10MN(A) (−Cys) antibody titer [1, 8]: <10 | Reciprocal anti-HIV peptide IgG (GMT) endpoint titer ([2]; individual Swiss-Webster mice): 500 | Reciprocal anti-HIV peptide IgG1 (pool) endpoint titer ([2]; pooled serum Swiss-Webster): <1000 | Reciprocal anti-HIV peptide IgG2a (pool) endpoint titer ([2]; pooled serum Swiss-Webster): <1000 | Reciprocal anti-T1SP10MN(A) (-Cys) IgG endpoint titer, WEEK 4 [3, 9]: <100 | Reciprocal anti-T1SP10MN(A) (-Cys) IgG endpoint titer, WEEK 6 [3, 9]: 17,579 | Reciprocal anti-T1SP10MN(A) (-Cys) IgG endpoint titer, WEEK 8 [3, 9]: 12,537 | Reciprocal anti-T1SP10MN(A) (-Cys) IgG1 endpoint titer [3, 10]: 1,783 | Reciprocal anti-T1SP10MN(A) (-Cys) IgG2a endpoint titer [3, 10]: <100 | Reciprocal anti-T1SP10MN(A) (-Cys) IgG2b endpoint titer [3, 10]: <100 | Reciprocal anti-T1SP10MN(A) (−Cys) IgG (GMT) endpoint titer ([3]; Experiment 2, geometric mean of individual Balb/c mice, 14 days after second immunization): 1,756 | Reciprocal anti-T1SP10MN(A) (−Cys) IgG1 (pool) endpoint titer [3, 11]: 14,538 | Reciprocal anti-T1SP10MN(A) (−Cys) IgG2a (pool) endpoint titer [3, 11]: 4,864 | Reciprocal anti-T1SP10MN(A) (−Cys) IgG (pool) endpoint titer ([3]; Experiment 2, pooled serum n=5 Balb/c, immunized days 0 and 21, 14 days after second immunization): 27,333 | IgG serum titer specific for T1SP10MN(A) (−Cys), Mouse #1 [3, 12]: 50 | IgG serum titer specific for T1SP10MN(A) (−Cys), Mouse #2 [3, 12]: 50 | IgG serum titer specific for T1SP10MN(A) (−Cys), Mouse #3 [3, 12]: 50 | IgG serum titer specific for T1SP10MN(A) (−Cys), Mouse #4 [3, 12]: 50 | IgG serum titer specific for T1SP10MN(A) (−Cys), Mouse #5 [3, 12]: 50 | Geometric Mean IgG serum titer specific for T1SP10MN(A) (−Cys), GMT ([3]; Experiment 4, n=5 Balb/c, day 41, 13 days after secondary immunization): 50 | Reciprocal anti-T1SP10MN(A) (−Cys) IgG1 endpoint titer [3, 13]: 5,514 | Reciprocal anti-T1SP10MN(A) (−Cys) IgG2a endpoint titer [3, 13]: <100 | Reciprocal anti-T1SP10MN(A) (−Cys) IgG2b endpoint titer [3, 13]: <100 | Reciprocal anti-T1SP10MN(A) (−Cys) IgG GMT ([3]; Experiment 5, geometric mean n=5 Balb/c, immunized days 0 and 22, bled day 42): 5,133 | Reciprocal anti-T1SP10MN(A) (−Cys) IgG1 endpoint titer [3, 14]: 3,815 | Reciprocal anti-T1SP10MN(A) (−Cys) IgG2a endpoint titer [3, 14]: <1000 | Reciprocal anti-T1SP10MN(A) (−Cys) IgG2b endpoint titer [3, 14]: <1000 | Reciprocal anti-T1SP10MN(A) (−Cys) IgG endpoint titer [3, 14]: 11,639 | Secretion of Interferon-gamma, Con A 1 μg/ml ([4]; Six Day Cultures): 7.3 picograms/ml | Secretion of Interferon-gamma, Con A 1 μg/ml ([4]; Three Day Cultures, detection limit 4 picograms/ml): 17.6 picograms/ml | Secretion of Interferon-gamma, Con A 5 μg/ml ([4]; Experiment 2, 96 hours culture, after subtraction of lysozyme value): 167 units/ml | Secretion of Interferon-gamma, HIV Peptide 1.1 μg/ml [4, 15]: 4 units/ml | Secretion of Interferon-gamma, HIV Peptide 3.3 μg/ml [4, 15]: 3 units/ml | Secretion of Interferon-gamma, HIV Peptide 10 μg/ml [4, 15]: 2 units/ml | Vaginal lavage reciprocal anti-HIV peptide IgA endpoint titer [5]: <10 | Vaginal lavage reciprocal anti-HIV peptide IgG endpoint titer [5]: <10
